The record followed here is PMC12097070 (2025).

One may read the koff as a measure of how fast the partners let go of each other.

The assay concerns the target human glucose‐regulated protein 78 (hGRP78), full-length (human, UniProt P11021 19-654). Briefly: SPR. On the technique in general: Surface plasmon resonance follows binding to a sensor surface in real time, without labels.

Sequence of human glucose‐regulated protein 78 (hGRP78), full-length (P11021 19-654): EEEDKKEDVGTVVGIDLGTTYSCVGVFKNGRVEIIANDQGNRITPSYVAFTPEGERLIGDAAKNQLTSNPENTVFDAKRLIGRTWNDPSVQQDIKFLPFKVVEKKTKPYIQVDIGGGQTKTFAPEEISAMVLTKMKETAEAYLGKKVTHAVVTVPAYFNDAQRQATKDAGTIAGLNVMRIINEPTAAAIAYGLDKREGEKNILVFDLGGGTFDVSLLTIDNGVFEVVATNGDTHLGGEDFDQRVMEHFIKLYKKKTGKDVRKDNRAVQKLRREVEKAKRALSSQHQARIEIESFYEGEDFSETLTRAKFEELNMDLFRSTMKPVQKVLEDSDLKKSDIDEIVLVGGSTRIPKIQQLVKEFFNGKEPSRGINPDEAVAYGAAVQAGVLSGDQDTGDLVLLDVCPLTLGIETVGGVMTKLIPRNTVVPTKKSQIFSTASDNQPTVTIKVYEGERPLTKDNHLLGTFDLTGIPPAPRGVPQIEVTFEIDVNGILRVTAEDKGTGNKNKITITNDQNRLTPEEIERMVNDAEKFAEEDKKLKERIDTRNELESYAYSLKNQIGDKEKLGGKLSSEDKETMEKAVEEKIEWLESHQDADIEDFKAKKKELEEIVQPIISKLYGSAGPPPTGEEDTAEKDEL

B1: Nb NBD1 (VHH)
VHH: AVQLVESGGGSVQAGGSLTLSCAASINTGNPALVGWYRQAPGKQREMVAMISISGNTNYAPSVKGRFTISRDNANKTIFLQMNSLTPEDTAVYYCKKLPFGSWGQGTQVTVSS
The molecule B1 had a koff of 0.000575 s⁻¹.
